Reference: PMC11634027

Experiments:
[1] = target: Ds-TM-ICD-ΔD-II:V5 (Drosophila); test: co-IP; S2 cells co-transfected; lysed in RIPA buffer; V5-tagged Ds construct precipitated with V5-Trap magnetic agarose beads, 1 h; blots with anti-V5 and anti-FLAG (Figs 4E, 5G, 6D,F, 8K)
[2] = target: Ds-TM-ICD-ΔD-II:V5 (Drosophila); test: co-IP; S2 cells co-transfected; lysed in RIPA buffer; results in supplementary figures (S6-S9) or without a figure; which beads (V5-Trap or Fab-Trap) is not told in what was shown
[3] = target: Ds-TM-ICD-ΔD-III:V5 (Drosophila); test: as above
[4] = target: Ds-TM-ICD-ΔD-III:V5 (Drosophila); test: co-IP; S2 cells co-transfected; lysed in RIPA buffer; V5-tagged Ds construct precipitated with V5-Trap magnetic agarose beads, 1 h; blots with anti-V5 and anti-FLAG (Figs 4E, 5G, 6D,F, 8K)

## FLAG:Lft (Lowfat) (from UniProt Q9VKY1 1-268) (natural protein)
[1]
  co-precipitation relative to Ds-ICD full length: 15%

## Sple-N:FLAG (from UniProt A1Z6W3 1-349) (domain or fragment)
[2]
  co-precipitation relative to Ds-ICD full length: 30%
[3]
  co-precipitation relative to Ds-ICD full length: 35%

## MyoID:FLAG (from UniProt Q23978 1-1011) (natural protein)
[1]
  co-precipitation relative to control (Ds-ICD:V5): 57%
[4]
  co-precipitation relative to control (Ds-ICD:V5): 40%
